Assay results taken from patent US20080145840A1.

Key:
C[C@H](N)C(=O)O = assay: purified protein, by the assay type
[1] = test system: Nc1ncnc2c1ncn2[C@@H]1O[C@H](COP(=O)(O)OP(=O)(O)OP(=O)(O)O)[C@@H](O)[C@H]1O; assay: purified protein, by the assay type

Work on E. coli MurC (Escherichia coli K-12) yielded a Km (C[C@H](N)C(=O)O; other: ITC, pH 8.0) of 44 µM, a Km (C[C@H](N)C(=O)O; other: Phosphate detection) of 56 µM and a Km ([1]; other: ITC, pH 8.0) of 61 µM. For the same substance, the Km ([1]; other: Phosphate detection) was 101 µM.
